From patent publication US11471462B2, “Compositions and methods for detecting and treating diabetes” (THE BROAD INSTITUTE, INC., priority 2016, dated 2022) come the findings set out here.

The assay deals with SLC16A11. Nature of the assay: SLC16A11 protein-protein interaction study (immunoprecipitation, quantitative mass spectrometry). On the set-up: species or system human. The settings on record: putative SLC16A11^REF interaction partners; immunoprecipitation from HEK293T cells vs empty vector control; Blandt-Altman.

B1: EMC3 (protein)
chain: AGPELLLDSNIRLWVVLPIVIITFFVGMIRHYVSILLQSDKKLTQEQVSDSQVLIRSRVLRENGKYIPKQSFLTRKYYFNNPEDGFFKKTKRKVVPPSPMTDPTMLTDMMKGNVTNVLPMILIGGWINMTFSGFVTTKVPFPLTLRFKPMLQQGIELLTLDASWVSSASWYFLNVFGLRSIYSLILGQDNAADQSRMMQEQMTGAAMAMPADTNKAFKTEWEALELTDHQWALDDVEEELMAKDLHFEGMFKKELQTSIF
In the case of B1, the “BA log fold change” value was 1.65.

B2: SLC25A3 (protein)
chain: AVEEYSCEFGSAKYYALCGFGGVLSCGLTHTAVVPLDLVKCRMQVDPQKYKGIFNGFSVTLKEDGVRGLAKGWAPTFLGYSMQGLCKFGFYEVFKVLYSNMLGEENTYLWRTSLYLAASASAEFFADIALAPMEAAKVRIQTQPGYANTLRDAAPKMYKEEGLKAFYKGVAPLWMRQIPYTMMKFACFERTVEALYKFVVPKPRSECSKPEQLVVTFVAGYIAGVFCAIVSHPADSVVSVLNKEKGSSASLVLKRLGFKGVWKGLFARIIMIGTLTALQWFIYDSVKVYFRLPRPPPPEMPESLKKKLGLTQ
For the molecule B2, the “BA log fold change” value is 1.65.
